Assay results as given in publication PMC5701251.

Target: gp49d, deletion mutant of the phage LKA1 tailspike protein LKA1gp49 without the N-terminal particle-binding domain (residues 1-167) (Pseudomonas phage LKA1)
Experiment: crystal structure; gp49d crystallised in 8% PEG 6000, 0.8 M NaCl, 0.1 M Na acetate pH 3.5 at 18 °C, 20 mg/ml; molecular replacement with gp61d; homotrimer

Substance: gp49d, deletion mutant of the phage LKA1 tailspike protein LKA1gp49 without the N-terminal particle-binding domain (residues 1-167) (domain or fragment)
- stoichiometry N: 3
